The results in this text go back to paper PMC4432651, “Dynamic interplay between catalytic and lectin domains of GalNAc-transferases modulates protein O-glycosylation” (Nature Communications, 2015).

In the assay the target is polypeptide N-acetylgalactosaminyltransferase 2 (GalNAc-T2), K75-Q571 (UniProt Q10471). The experiment in a line: other fluorescence titration; tryptophan fluorescence quenching, 25 °C, GalNAc-T2 at 1 μM, peptides 1 to 500 μM, 25 mM Tris, 150 mM NaCl, pH 7.5; without UDP/Mn+2; single binding site model.
Sequence of polypeptide N-acetylgalactosaminyltransferase 2 (GalNAc-T2), K75-Q571 (Q10471 75-571): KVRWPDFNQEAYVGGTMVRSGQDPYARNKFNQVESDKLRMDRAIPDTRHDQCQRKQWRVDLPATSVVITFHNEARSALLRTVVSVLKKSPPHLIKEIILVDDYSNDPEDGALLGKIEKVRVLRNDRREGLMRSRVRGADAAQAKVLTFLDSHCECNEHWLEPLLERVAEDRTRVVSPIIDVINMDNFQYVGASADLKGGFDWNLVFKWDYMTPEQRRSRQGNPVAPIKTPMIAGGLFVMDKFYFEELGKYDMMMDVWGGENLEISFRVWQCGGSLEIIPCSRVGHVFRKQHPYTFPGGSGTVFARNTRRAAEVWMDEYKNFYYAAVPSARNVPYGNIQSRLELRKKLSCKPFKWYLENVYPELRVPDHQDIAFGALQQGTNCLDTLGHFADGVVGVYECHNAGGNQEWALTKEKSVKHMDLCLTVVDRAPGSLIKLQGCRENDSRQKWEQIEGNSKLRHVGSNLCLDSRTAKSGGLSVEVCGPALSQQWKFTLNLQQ

Take MUC5AC peptide (naked): the fold change of Kd, without UDP/Mn+2 against with UDP/Mn+2 stood at 4 fold.
